T1: HER4 (Homo sapiens (Human), UniProt Q15303 26-651)
T1 construct: also called EGFR HER family protein HER4
T1 sequence: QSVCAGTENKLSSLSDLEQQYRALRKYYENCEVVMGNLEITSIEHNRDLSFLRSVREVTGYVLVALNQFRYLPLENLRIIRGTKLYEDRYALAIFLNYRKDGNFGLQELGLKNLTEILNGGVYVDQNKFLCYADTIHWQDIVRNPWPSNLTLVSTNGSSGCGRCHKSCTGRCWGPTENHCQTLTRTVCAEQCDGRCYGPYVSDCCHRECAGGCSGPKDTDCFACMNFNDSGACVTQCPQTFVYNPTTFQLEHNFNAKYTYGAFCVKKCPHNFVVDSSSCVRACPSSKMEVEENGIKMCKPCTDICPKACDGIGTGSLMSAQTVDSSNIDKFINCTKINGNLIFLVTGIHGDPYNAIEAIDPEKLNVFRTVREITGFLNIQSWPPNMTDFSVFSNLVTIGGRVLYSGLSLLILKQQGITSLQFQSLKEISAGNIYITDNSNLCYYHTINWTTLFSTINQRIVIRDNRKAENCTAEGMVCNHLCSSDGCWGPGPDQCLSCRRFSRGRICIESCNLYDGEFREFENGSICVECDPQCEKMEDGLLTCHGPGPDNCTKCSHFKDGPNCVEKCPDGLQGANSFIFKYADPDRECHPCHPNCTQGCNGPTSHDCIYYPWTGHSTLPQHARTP

B1: RAA22/B09-57 DuetMab (bispecific antibody, human IgG1, kappa, lambda)
heavy 1: QVQLVQSGAEVKKPGSSVKVSCKASGGTFSDNDFSWVRQAPGQGLEWMGAIVAVFRTETYAQKFQDRVKITADISTRTTYMELSSLRSEDTAVYYCARRLMSAISGPGAPLLMWGQGTLVTVSSASTKGPSVFPLAPSSKSTSGGTAALGCLVKDYFPEPVTVSWNSGALTSGVHTFPAVLQSSGLYSLSSVVTVPSSSLGTQTYICNVNHKPSNTKVDKRVEPKSCDKTHTCPPCPAPELLGGPSCVFLFPPKPKDTLMISRTPEVTCVVVDVSHEDPEVKFNWYVDGVEVHNAKTKPREEQYNSTYRVVSVLTVLHQDWLNGKEYKCKVSNKALPAPIEKTISKAKGQPREPQVCTLPPSREEMTKNQVSLSCAVKGFYPSDIAVEWESNGQPENNYKTTPPVLDSDGSFFLVSKLTVDKSRWQQGNVFSCSVMHEALHNHYTQKSLSLSPGK
light 1: QSALTQPRSVSGSPGQSVTISCTGTSSDVGGYNYVSWYQQHPGKAPKLMIYDVSKRPSGVPDRFSGSKSGNTASLTISGLQAEDEADYYCSSYTSSDTLEIFGGGTKLTVLGQPKAAPSVTLFPPSSEELQANKATLVCLISDFYPGAVTVAWKADSSPVKAGVETTTPSKQSNNKYAASSYLSLTPEQWKSHRSYSCQVTHEGSTVEKTVAPTECS
heavy 2: QVQLVQSGAEVKKPGASVKVSCKASGYTFTDYYIHWVRQATGQGLEWMGWMNPNSGNTGYAQKFQGRVTMTRDTSISTAYMELSSLRSEDTAVYYCARGQGYTHSWGQGTMVTVSSASTKGPSVCPLAPSSKSTSGGTAALGCLVKDYFPEPVTVSWNSGALTSGVHTFPAVLQSSGLYSLSSVVTVPSSSLGTQTYICNVNHKPSNTKVDKRVEPKSVDKTHTCPPCPAPELLGGPSCVFLFPPKPKDTLMISRTPEVTCVVVDVSHEDPEVKFNWYVDGVEVHNAKTKPREEQYNSTYRVVSVLTVLHQDWLNGKEYKCKVSNKALPAPIEKTISKAKGQPREPQVYTLPPCREEMTKNQVSLWCLVKGFYPSDIAVEWESNGQPENNYKTTPPVLDSDGSFFLYSKLTVDKSRWQQGNVFSCSVMHEALHNHYTQKSLSLSPG
light 2: DIQMTQSPSTLSASVGDRVTITCRASEGIYHWLAWYQQKPGKAPKLLIYKASSLASGVPSRFSGSGSGTEFTLTISSLQPDDFATYYCQQYSNYPPTFGGGTKLEIKRTVAAPSVFIFPPCDEQLKSGTASVVCLLNNFYPREAKVQWKVDNALQSGNSQESVTEQDSKDSTYSLSSTLTLSKADYEKHKVYACEVTHQGLSSPVTKSFNRGEV
notes: Labelled with AlexaFluor-647 in the microscopy experiments; also called RAA22/B09-Maia; bispecific EGFR/cMET DuetMAb
B2: B09-57 IgG (antibody, V domains shown)
VH: QVQLVQSGAEVKKPGASVKVSCKASGYTFTDYYIHWVRQATGQGLEWMGWMNPNSGNTGYAQKFQGRVTMTRDTSISTAYMELSSLRSEDTAVYYCARGQGYTHSWGQGTMVTVSS
VL: DIQMTQSPSTLSASVGDRVTITCRASEGIYHWLAWYQQKPGKAPKLLIYKASSLASGVPSRFSGSGSGTEFTLTISSLQPDDFATYYCQQYSNYPPTFGGGTKLEIK
notes: also called B09-GL; anti-c-Met antibody clone B09-GL

Assays:
[1] = molecular target: EGFR and c-MET co-expressed on HCC827 cells; assay: confocal fluorescence microscopy, AF647-labelled antibody pre-bound to HCC827 cells, T=0
[2] = molecular target: EGFR and c-MET co-expressed on HCC827 cells; assay: confocal fluorescence microscopy, AF647-labelled antibody pre-bound to cells, T=0
HER2 = molecular target: T2, HER2 (Homo sapiens (Human), UniProt P04626 23-652); assay: ELISA, antigen coated at 1 ug/mL, anti-human Fab-HRP detection, A450
T2 construct: also called EGFR HER family protein HER2

[3] = molecular target: T3, Cynomolgus monkey cMET (recombinant, soluble monomeric) (cynomolgus monkey, UniProt A0M8R7 25-932 (Papio anubis entry)); assay: SPR (Biacore T200), antibody captured on anti-human IgG, soluble monomeric antigen as analyte, 25 C
T3 construct: also called cyno c-Met
T3 sequence (A0M8R7 25-932 S170N/I621T): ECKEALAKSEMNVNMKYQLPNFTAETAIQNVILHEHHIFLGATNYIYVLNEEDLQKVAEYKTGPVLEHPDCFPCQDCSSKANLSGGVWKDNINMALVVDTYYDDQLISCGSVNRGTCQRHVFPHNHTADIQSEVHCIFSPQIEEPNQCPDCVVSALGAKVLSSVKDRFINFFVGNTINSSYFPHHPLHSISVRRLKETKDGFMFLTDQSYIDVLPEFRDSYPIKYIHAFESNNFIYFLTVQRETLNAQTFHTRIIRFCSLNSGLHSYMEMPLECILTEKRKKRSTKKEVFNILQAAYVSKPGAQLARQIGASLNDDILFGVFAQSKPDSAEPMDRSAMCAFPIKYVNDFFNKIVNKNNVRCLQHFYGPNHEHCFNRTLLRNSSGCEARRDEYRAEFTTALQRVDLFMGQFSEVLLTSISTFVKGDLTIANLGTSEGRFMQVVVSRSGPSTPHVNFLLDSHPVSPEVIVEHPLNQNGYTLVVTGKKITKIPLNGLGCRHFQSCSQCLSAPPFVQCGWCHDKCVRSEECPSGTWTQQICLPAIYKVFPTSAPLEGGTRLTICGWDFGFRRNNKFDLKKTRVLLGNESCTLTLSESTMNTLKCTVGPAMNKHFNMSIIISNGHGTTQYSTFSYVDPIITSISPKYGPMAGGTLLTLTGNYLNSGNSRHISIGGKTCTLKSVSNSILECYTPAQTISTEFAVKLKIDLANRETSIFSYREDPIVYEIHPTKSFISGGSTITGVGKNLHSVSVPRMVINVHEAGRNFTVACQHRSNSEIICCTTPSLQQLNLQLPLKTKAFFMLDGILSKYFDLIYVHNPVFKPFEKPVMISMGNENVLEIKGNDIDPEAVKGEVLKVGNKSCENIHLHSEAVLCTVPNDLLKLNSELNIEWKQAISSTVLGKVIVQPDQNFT
Experimental: (§1) Mouse anti-human IgG was immobilized on a CM4 sensor chip with a final surface density of ˜2000 resonance units (RUs). A reference flow cell surface was also prepared on this sensor chip using identical immobilization protocol. Test and control article antibodies were prepared at 5-20 nM in instrument buffer (HBS-EP buffer; 0.01M HEPES, pH 7.4, 0.15M NaCl, 3 mM EDTA, and 0.005% P-20), along with 3-fold serial dilutions of purified EGFR (0.27-200 nM human, 0.4-900 nM cyno, and 4-1000 nM murine) or cMET proteins (0.27 to 66 nM human and 0.27-22 nM cyno) in instrument buffer. A sequential approach was utilized for kinetic measurements. Antibodies were first injected over the capture surface, at a flow rate of 10 μL/minute. Once the binding of the captured antibody stabilized, a single concentration of the analyte was injected over both capture and reference surfaces, at a flow rate of 75 μL/minute. The resulting binding response curves yielded the association phase data. Following the injection of analyte, the flow was then switched back to instrument buffer for 15 minutes to permit the collection of dissociation phase data, followed by a 1-minute pulse of 10 mM glycine, pH 1.5, to regenerate the antibody-captured surface on the chip. Binding responses against test and control article antibodies were recorded from duplicate injections of each concentration of analyte. In addition, several buffer injections were interspersed throughout the injection series. Select buffer injections were used along with the reference cell responses to correct the raw data sets for injection artifacts and/or nonspecific binding interactions, commonly referred to as “double referencing”. Corrected binding data were globally fit to a 1:1 binding model (Biacore T200 Evaluation software 2.0, GE Healthcare, Pittsburgh, PA).
(§2) Kinetic measurements to soluble monomeric forms of EGFR and cMET were performed using a BIACore instrument.

[4] = molecular target: T4, Human cMET (recombinant, soluble monomeric) (human, UniProt P08581 25-932); assay: as above
T4 construct: also called His-tagged cMET antigen
T4 sequence (P08581 25-932): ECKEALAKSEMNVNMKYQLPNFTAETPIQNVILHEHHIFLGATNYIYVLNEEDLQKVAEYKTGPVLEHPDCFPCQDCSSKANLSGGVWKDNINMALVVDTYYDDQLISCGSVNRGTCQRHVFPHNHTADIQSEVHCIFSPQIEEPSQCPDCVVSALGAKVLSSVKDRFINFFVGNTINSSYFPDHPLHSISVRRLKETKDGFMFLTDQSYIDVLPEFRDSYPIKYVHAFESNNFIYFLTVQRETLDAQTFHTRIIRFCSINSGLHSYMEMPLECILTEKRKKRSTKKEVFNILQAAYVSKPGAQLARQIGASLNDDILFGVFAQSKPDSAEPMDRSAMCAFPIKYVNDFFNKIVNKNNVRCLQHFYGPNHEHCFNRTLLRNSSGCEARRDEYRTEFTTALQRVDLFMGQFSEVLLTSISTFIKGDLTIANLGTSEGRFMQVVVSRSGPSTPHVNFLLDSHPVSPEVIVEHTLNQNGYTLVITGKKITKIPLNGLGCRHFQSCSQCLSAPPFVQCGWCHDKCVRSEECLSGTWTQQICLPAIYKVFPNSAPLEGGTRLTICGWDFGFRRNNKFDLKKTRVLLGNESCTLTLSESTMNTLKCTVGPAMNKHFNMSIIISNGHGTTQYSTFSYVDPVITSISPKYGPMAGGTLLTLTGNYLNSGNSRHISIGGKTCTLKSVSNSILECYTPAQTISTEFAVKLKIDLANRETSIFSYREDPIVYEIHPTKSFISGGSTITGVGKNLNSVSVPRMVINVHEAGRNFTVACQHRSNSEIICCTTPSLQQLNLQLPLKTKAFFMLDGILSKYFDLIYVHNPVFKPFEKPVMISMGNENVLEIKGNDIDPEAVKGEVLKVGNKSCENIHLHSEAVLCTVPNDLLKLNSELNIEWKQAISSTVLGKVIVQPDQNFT
Experimental: as §1, §2

[5] = molecular target: T5, Mouse EGFR (recombinant, soluble monomeric) (mouse, UniProt Q01279 25-647); assay: as above
T5 construct: also called murine EGFR
Experimental: as §1, §2

[6] = molecular target: T6, Human EGFR (recombinant, soluble monomeric) (human, UniProt P00533 25-645); assay: as above
T6 construct: also called EGFR antigen; recombinant human EGFR
Experimental: as §1, §2

[7] = molecular target: T7, Cynomolgus monkey EGFR (recombinant, soluble monomeric) (cynomolgus monkey, UniProt P55245 25-645 (rhesus entry)); assay: as above
T7 construct: also called cyno EGFR
Experimental: as §1, §2

Mouse cMET (recombinant) = Mouse cMET (recombinant) (mouse, UniProt P16056 25-931, limits assumed); assay: ELISA, antigen coated at 1 ug/mL, anti-human Fab-HRP detection, A450
Mouse cMET (recombinant), sequence (P16056 25-931 limits assumed): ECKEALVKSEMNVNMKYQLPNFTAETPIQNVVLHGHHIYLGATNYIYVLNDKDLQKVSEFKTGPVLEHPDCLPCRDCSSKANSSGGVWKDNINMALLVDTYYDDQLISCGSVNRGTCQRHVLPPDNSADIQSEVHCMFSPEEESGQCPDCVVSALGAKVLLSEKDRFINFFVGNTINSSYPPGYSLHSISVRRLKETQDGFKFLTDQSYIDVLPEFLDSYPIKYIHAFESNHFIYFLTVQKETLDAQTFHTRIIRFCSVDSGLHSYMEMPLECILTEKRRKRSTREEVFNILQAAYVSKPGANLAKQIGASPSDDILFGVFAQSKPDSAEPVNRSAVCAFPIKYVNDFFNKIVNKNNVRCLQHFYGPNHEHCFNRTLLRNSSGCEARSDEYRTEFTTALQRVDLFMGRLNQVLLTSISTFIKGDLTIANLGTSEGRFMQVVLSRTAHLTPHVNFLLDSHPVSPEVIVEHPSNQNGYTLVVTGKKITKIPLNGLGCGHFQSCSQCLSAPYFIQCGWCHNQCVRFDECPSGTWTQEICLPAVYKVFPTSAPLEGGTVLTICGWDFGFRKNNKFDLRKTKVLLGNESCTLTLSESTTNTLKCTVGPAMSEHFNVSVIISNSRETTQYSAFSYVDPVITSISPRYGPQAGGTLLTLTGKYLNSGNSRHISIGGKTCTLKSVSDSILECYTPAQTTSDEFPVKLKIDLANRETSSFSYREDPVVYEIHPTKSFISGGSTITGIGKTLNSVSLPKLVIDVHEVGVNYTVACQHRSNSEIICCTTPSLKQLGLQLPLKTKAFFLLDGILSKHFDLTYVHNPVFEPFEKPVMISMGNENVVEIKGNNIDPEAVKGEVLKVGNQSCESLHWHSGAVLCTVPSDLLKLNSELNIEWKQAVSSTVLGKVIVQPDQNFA
Experimental: (§3) Specificity for EGFR and cMET species paralogs and closely related family members was determined by ELISA. Briefly, antigen solutions were prepared in PBS at 1 μg/mL and 50 microliters was coated onto half area ELISA assay plates. Plates were washed and blocked with 1% BSA in PBS containing 0.005% Tween-20 (PBS-T) for one hour at room temperature. […] Wells were incubated with 50 microliters of the indicated primary antibodies diluted in PBS-T in a 1:3 dilution series, starting at 10 μg/mL and ending at 0.002 ug/mL, except for the HER4 binding mAb control, MAB1131, for which the series started at 1 μg/mL. The wells were washed 4 times in PBS-T, then 50 μl of goat anti-human Fab HRP-labeled secondary antibody, diluted 1:5000 in PBS-T, was added to each well and incubated for one hour at room temperature. […] 50 microliters of TMB stop solution was added to all wells and the absorbance was read at 450 nm on a SpectraMax M5 microplate reader. Data were analyzed in the SoftMax Pro 5 software and plotted using GraphPad Prism 7 graphing software.
(§4) To determine the species cross reactivity, ELISA assays were carried out as described above.

HER3 = molecular target: T8, HER3 (Homo sapiens (Human), UniProt P21860 20-643); assay: as above
T8 construct: also called EGFR HER family protein HER3

[8] = molecular target: EGFR and c-MET co-expressed on NCI-H1975 cells; assay: confocal fluorescence microscopy, AF647-labelled antibody pre-bound to H1975 cells, T=0
HER4 = molecular target: T1, HER4; assay: ELISA, antigen coated at 1 ug/mL, anti-human Fab-HRP detection, A450
[9] = molecular target: T6, Human EGFR (recombinant, soluble …); assay: biolayer interferometry (Octet), antibody bound to cMET captured on NI-NTA sensors, then human EGFR
[10] = molecular target: T5, Mouse EGFR (recombinant, soluble …); assay: ELISA, antigen coated at 1 ug/mL, anti-human Fab-HRP detection, A450
Experimental: as §3, §4

[11] = molecular target: T7, Cynomolgus monkey EGFR (recombinant, …); assay: as above
Experimental: as §3, §4

Binder | binding result (HER2) | Kd [3] [nM] | koff [3] [s⁻¹] | kon [3] [M⁻¹ s⁻¹] | Kd [4] [nM] | koff [4] [s⁻¹] | kon [4] [M⁻¹ s⁻¹] | binding result (Mouse cMET (recombinant)) | binding result (HER3) | binding result (HER4) | other results
B1 | no binding (tested: 10 ug/ml) | 2.2 | 0.00212 | 974000 | 2.2 | 0.000986 | 443000 | no binding (tested: 10 ug/ml) | no binding (tested: 10 ug/ml) | no binding (tested: 10 ug/ml) | MFI [1]: 3.1e+07 MFI; fold higher binding than on H1975 cells [2]: 8.9 fold; Kd [5]: 575 nM; koff [5]: 0.0206 s⁻¹; kon [5]: 35400 M⁻¹ s⁻¹; Kd [6]: 45 nM; koff [6]: 0.00201 s⁻¹; kon [6]: 44700 M⁻¹ s⁻¹; Kd [7]: 197 nM; koff [7]: 0.00548 s⁻¹; kon [7]: 27800 M⁻¹ s⁻¹; MFI [8]: 3.5e+06 MFI
B2 | no binding (tested: 10 ug/ml) | 1.9 | 0.00194 | 1.04e+06 | 1.6 | 0.000882 | 563000 | no binding (tested: 10 ug/ml) | no binding (tested: 10 ug/ml) | no binding (tested: 10 ug/ml) | binding result [9]: no binding (tested: 500 nM EGFR); binding result [10]: no binding (tested: 10 ug/ml); binding result [11]: no binding (tested: 10 ug/ml)

From patent US20240360226A1 (AstraZeneca / MedImmune, published 2024)
